Data from patent publication US5635216A, “Microparticle compositions containing peptides, and methods for the preparation thereof” (Eli Lilly and Company, priority 1993, dated 1997).

Key:
[1] = test system: finishing swine; assay: Urinary urea nitrogen excretion in finishing swine after subcutaneous injection; format: in vivo; settings: b137 study, FIGS. 3 and 4; barrows, 3 micrograms/kg/day injected twice per day; all time periods for 15 days
Method: (§1) The microparticles prepared in accordance with the previous examples were used to determine the effect of somatogenin (LY293404) concentration in different PLA/PGA microparticle concentrations. Payout characteristics were measured by urinary urea nitrogen excretion and serum growth hormone levels in finishing swine. The microparticle formulations were placed in suspension, using 2% W/V sodium carboxyl-methyl-cellulose 330 (NaCMC) in Nano-pure II purified water. The suspension was injected subcutaneously in the flank. […] Urinary nitrogen reduction is a measurement of growth hormone which is stimulated by somatogenin release from microparticles. […] The reduction was the greatest for the highest loaded (25%) microparticles, and lowest for the lowest (5%) loaded microparticles. […] The vertical bars in the figures represent the relative standard deviations. The microparticles prepared in accordance with the previous examples were used to determine the payout characteristics of somatogenin (LY293404) when administered in different PLA/PLG microparticle formulations as measured by urinary urea nitrogen excretion and serum growth hormone levels in finishing swine. The microparticle formulations were placed in suspension, using 2% W/V sodium carboxyl-methyl-cellulose 330 (NaCMC) in Nano-pure II purified water. The suspension was injected subcutaneously in the flank. […]

[2] = test system: finishing swine; assay: Serum growth hormone levels in finishing swine after subcutaneous injection; format: in vivo; settings: b137 study, FIGS. 3 and 4; barrows, 3 micrograms/kg/day injected twice per day; all time periods for 15 days
Method: as §1

B1: 4-methylhippuroyl (1) porcine GHRH (2-76)--OH (peptide)
chain: GADAIFTNNYRRVLTQLSARRLLQDILSRQQGERNQEQGARVRLGRQVDSLWADQRQLALESILATLLQEHRNSQG
modifications: 4-methylhippuroyl N-terminus
notes: analog of a natural porcine GHRH prohormone
In the case of B1, the urinary urea excretion [1] is reported as “reduction” and the “serum GH levels” value [2] is reported as “elevation”.
